Source: patent US20250264433A1 (STATE OF ISRAEL MINISTRY OF AGRICULTURE AND RURAL …, published 2025)

Target: Native EspB of wild-type EPEC O127:H6 strain E2348/69
Sequence (Q05129 whole entry): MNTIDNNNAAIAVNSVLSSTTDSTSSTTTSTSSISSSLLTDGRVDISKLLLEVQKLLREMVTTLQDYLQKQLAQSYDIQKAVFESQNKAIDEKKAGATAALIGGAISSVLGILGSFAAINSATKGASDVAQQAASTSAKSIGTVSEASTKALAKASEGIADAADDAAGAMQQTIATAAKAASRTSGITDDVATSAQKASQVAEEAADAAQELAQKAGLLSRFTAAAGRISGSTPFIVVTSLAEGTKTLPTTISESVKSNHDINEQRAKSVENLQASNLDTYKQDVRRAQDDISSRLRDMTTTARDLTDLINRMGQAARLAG

B1: mAb-EspB-B7 (antibody, V domains shown)
VH: EVQLLESGGGLVQPGGSLRLSCAASGFTFSHYAMNWVRQAPGKGLEWVSAINSNGDSTYYPDTVKDRFTISRDNSKNTLYLQMNSLRAEDTAVYYCARDRRAGYFDYWGQGTLVTVSS
VL: DIVLTQPPSASGTPGQRVTISCSGSRDNIGKNYVSWYQQLPGTAPKLLIYRNNQRPSGVPDRFSGSKSGTSASLAISGLRSEDEADYYCSAWDTSLNAYVFGPGTQLTVL
notes: also called mAb-B7; anti-EspB antibody
  signal for EPEC WT relative to the ΔespB strain: 36%
